From publication PMC6472409, “Dishevelled-3 conformation dynamics analyzed by FRET-based biosensors reveals a key role of casein kinase 1” (Nature Communications, 2019)
One block for each molecule: values may come before it. Where a SMILES comes first, the peptide text is derived from it. [ ]: non-standard residue; d: D form. The star is where a group is joined. FITC = O=C1OC2(c3ccc(O)cc3Oc3cc(O)ccc32)c2ccc(NC(=S)*)cc21; pS = N[C@@H](COP(=O)(O)O)C(=O)O; Ahx = NCCCCCC(=O)O

How the values were obtained:
[1] = target: recombinant His-tagged human CK1ε (Homo sapiens, UniProt P49674); assay: Fluorescence anisotropy (FA) binding of FITC-labeled peptides; conditions: FITC-Ahx peptide 50 nM, 30 min, 37 °C; n=3; read-out: affinity for recombinant CK1ε (fluorescence anisotropy)
Sequence of recombinant His-tagged human CK1ε (P49674 whole entry): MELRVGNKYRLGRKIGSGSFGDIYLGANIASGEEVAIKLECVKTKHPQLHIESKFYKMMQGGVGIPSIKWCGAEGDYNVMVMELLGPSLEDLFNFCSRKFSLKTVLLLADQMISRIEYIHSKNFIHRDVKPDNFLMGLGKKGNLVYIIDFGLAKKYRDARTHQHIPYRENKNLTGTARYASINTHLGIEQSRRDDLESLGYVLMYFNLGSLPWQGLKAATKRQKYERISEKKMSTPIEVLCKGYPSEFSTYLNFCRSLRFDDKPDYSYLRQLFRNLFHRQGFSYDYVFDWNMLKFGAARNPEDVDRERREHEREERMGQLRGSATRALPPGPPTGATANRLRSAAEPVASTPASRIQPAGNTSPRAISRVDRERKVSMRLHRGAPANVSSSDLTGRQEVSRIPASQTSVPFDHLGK
Text: The peptides used in the fluorescent polarization (FA) binding assays were synthesized at Pepscan B.V. (Lelystad, Netherlands). The sequences of these peptides (indicated in Supplementary Fig. 4a) were amidated at their C-termini, and their N-termini were acylated with 6-aminocaproic acid (Ahx) modified with fluorescein isothiocyanate (FITC). The peptides used in the NMR/SPR studies were purchased from KareBay Biochem, Inc. (New Jersey, USA). The peptides for the NMR/SPR studies contained no terminal modifications.
Data were recorded at 37 °C using Tecan Infinite F500 (Tecan Systems, Germany). FITC-labeled peptides were dissolved in DMSO and added to 384-well plates (Corning) to a total volume of 20 μl (peptide final concentration was 50 nM). Incubation with recombinant His-tagged human CK1ε (MyBioSource, #MBS964562) was performed for 30 min at 37 °C. Then, fluorescence intensities were collected simultaneously by detection at 535/590 and 485/535 nm excitation/emission wavelengths, respectively, followed by adjustment to the blank controls.

[2] = target: FITC-labeled peptide corresponding to the DVL3 RGPR region, non-phosphorylated (fluorescence anisotropy) (human); assay: fluorescence polarisation; fluorescence anisotropy, 50 nM FITC-labeled peptide with recombinant His-tagged human CK1ε, 30 min at 37 °C, 384-well plates
[3] = target: FITC-labeled peptide corresponding to the DVL3 FRMA region, non-phosphorylated (fluorescence anisotropy) (human); assay: as above
[4] = target: FITC-labeled peptide corresponding to the DVL3 RGCF region, non-phosphorylated (fluorescence anisotropy) (human); assay: as above
Xenopus laevis embryos = assay: Convergent extension (CE) / neural tube defects in Xenopus embryos (Wnt/PCP readout); assay type: in vivo; conditions: Dorsal injection, 100pg/embryo
Text: In the cell culture model we were unable to dissect the effects on the non-canonical Wnt/PCP pathway, and as such we turned into the Xenopus embryo model. Alterations in the Wnt/PCP pathway activity result in the convergent extension (CE) defects (Supplementary Fig. 7b, right). In order to avoid any artifacts, we tested the constitutively open and closed variants of xDvl3 based on point mutations or small deletions—namely open xDvl3 ΔC and xDvl3 (S267E/S310E) and closedxDvl3 (S267A/S310A). Phosphorylation sites in the PDZ domain are fully conserved between human and Xenopus (for alignment see Supplementary Fig. 5a) and hDVL3 S268/S311 corresponds to xDvl3 S267/S310.
The work with Xenopus laevis was carried out according to the German animal use and care law (Das Tierschutzgesetz) and approved by the local authorities and committees (animal care and housing approval: I/39/EE006, Veterinäramt Erlangen; animal experiments approval: 54-2532.2-8/08, German state administration Bavaria/Regierung von Mittelfranken). The generation and cultivation of Xenopus embryos was done in accordance with general protocols and staged after the normal table of Niewkoop and Faber (1994)[53].
RNA for microinjection was synthesized from plasmids pCS2 myc-xDvl3 (ref. [54]), pCS2 myc-xDvl3 ΔALL (lacking sequence corresponding to aa 338–350, 609–619, and 693–705 in xDvl3), pCS2 xDvl3 (S267A/S310A), pCS2 xDvl3 (S267E/S310E), pCS2 xDvl3 ΔC, and pCS2 xCK1ε[55], respectively, using the mMessage mMachine Kit (Ambion). Embryos were injected at the four-cell stage either into the two ventral blastomeres for testing the constructs' ability to induce a secondary body axis. Injection amounts of synthetic RNA were 500 pg for myc-xDvl3 wild type and the myc-xDvl3 ∆ALL variant, and 150 pg for xCK1ε RNA. For the analysis of morphogenetic defects, four-cell stage embryos were injected into the two dorsal blastomeres with 100 pg myc-xDvl3 RNA and the corresponding variant RNAs. After injection, the embryos were cultivated until they reached stage 26, fixed, and analyzed for axis duplication or morphogenetic defects, respectively.

[5] = target: T1, PDZ domain of human DVL2 wild type (aa 265–361) (human, UniProt O14641 265-361); assay: SPR; Biacore T200, PDZ immobilized on CM5 chip by amino coupling, peptide injected at increasing concentrations to steady state; one-site equilibrium fit, apparent KD; conditions: both partners purified
T1 construct: Dishevelled-2, human, PDZ domain aa 265-361; 15N-labeled (13C/15N for assignment) for NMR; S286 and S329 correspond to S268 and S311 of human DVL3; also called DVL2 PDZ wild type; PDZ wt; source: E. coli BL21 (DE3), purified (Ni-NTA, TEV cleavage, ion exchange, size exclusion); not shown: His6, N-terminal, cleaved; lipoyl domain, N-terminal, cleaved
T1 sequence (looked up): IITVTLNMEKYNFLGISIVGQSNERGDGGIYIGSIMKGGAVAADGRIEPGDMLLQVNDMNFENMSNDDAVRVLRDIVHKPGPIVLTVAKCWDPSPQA

[6] = target: T2, PDZ domain of human DVL2 (aa 265–361), phosphorylation-mimicking variant S286E + S329E (human, UniProt O14641 265-361, S286E | S329E); assay: as above; conditions: both partners purified
T2 construct: Dishevelled-2, human, PDZ domain aa 265-361 with S286E and S329E; 15N-labeled for NMR; also called S286E/S329E PDZ; PDZ phosphomimicking variant; source: E. coli BL21 (DE3), purified (Ni-NTA, TEV cleavage, ion exchange, size exclusion); not shown: His6, N-terminal, cleaved; lipoyl domain, N-terminal, cleaved
T2 sequence (looked up): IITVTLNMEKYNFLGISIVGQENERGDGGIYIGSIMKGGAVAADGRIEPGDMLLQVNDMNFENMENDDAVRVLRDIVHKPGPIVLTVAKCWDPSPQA

[7] = target: T2, PDZ domain of human DVL2 (aa 265–361), …; assay: NMR titration; 1H,15N HSQC series, 100 μM 15N-labeled PDZ with increasing amounts of peptide; 20 mM HEPES pH 6.8, 50 mM KCl; apparent KD from three fast-exchange cross-peaks; conditions: both partners purified
[8] = target: T3, PDZ domain of human DVL2 (aa 265–361), phosphorylation-mimicking variant S286E + S329E (human, UniProt O14641 265-361, S286E | S329E); assay: NMR
T3 sequence: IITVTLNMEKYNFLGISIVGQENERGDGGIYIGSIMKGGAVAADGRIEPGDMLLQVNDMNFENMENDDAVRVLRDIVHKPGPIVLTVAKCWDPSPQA

[9] = target: T4, PDZ domain of human DVL2 wild type (aa 265–361) (human, UniProt O14641 265-361); assay: NMR
T4 chain: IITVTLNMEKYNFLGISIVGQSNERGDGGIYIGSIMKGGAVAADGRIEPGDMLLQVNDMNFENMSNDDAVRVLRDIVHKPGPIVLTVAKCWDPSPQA

Kd [1]: ~1000 nM
Molecule: CC(C)C[C@H](NC(=O)[C@@H](NC(=O)[C@H](Cc1ccccc1)NC(=O)[C@H](CS)NC(=O)CNC(=O)[C@H](CCCNC(=N)N)NC(=O)[C@@H]1CCCN1C(=O)[C@H](CO)NC(=O)[C@@H]1CCCN1C(=O)CCCCCNC(=S)Nc1ccc2c(c1)C(=O)OC21c2ccc(O)cc2Oc2cc(O)ccc21)[C@@H](C)O)C(=O)N1CCC[C@H]1C(=O)N[C@@H](CCCNC(=N)N)C(=O)N[C@@H](CO)C(=O)N[C@@H](CCC(=O)O)C(N)=O [RGCF] ({FITC-Ahx}-PSPRGCFTLPRSE-NH2)

Kd [1]: ~1000 nM
Molecule: CC(C)C[C@H](NC(=O)[C@H](CO)NC(=O)[C@H](CO)NC(=O)CCCCCNC(=S)Nc1ccc2c(c1)C(=O)OC21c2ccc(O)cc2Oc2cc(O)ccc21)C(=O)N[C@@H](CCCNC(=N)N)C(=O)NCC(=O)N1CCC[C@H]1C(=O)N[C@@H](CCCNC(=N)N)C(=O)N[C@@H](CCC(=O)O)C(=O)N[C@@H](CCCNC(=N)N)C(=O)N[C@@H](C)C(=O)N1CCC[C@H]1C(=O)N[C@@H](CO)C(=O)N[C@@H](CCC(=O)O)C(N)=O [RGPR] ({FITC-Ahx}-SSLRGPRERAPSE-NH2)

Kd [1]: ~1000 nM
Molecule: CSCC[C@H](NC(=O)[C@H](C)NC(=O)[C@H](CCSC)NC(=O)[C@H](CCCNC(=N)N)NC(=O)[C@H](Cc1ccccc1)NC(=O)[C@H](CO)NC(=O)[C@H](CCC(N)=O)NC(=O)[C@H](CCCNC(=N)N)NC(=O)CCCCCNC(=S)Nc1ccc2c(c1)C(=O)OC21c2ccc(O)cc2Oc2cc(O)ccc21)C(=O)NCC(=O)N[C@@H](CC(N)=O)C(N)=O [FRMA] ({FITC-Ahx}-RQSFRMAMGN-NH2)

Kd [2]: 1000 nM
Kd [3]: 1000 nM
Kd [4]: 1000 nM
Molecule: recombinant His-tagged human CK1ε (MyBioSource, #MBS964562) (from UniProt P49674 1-416) (enzyme)

B1: WT-Dvl3 (protein, UniProt Q92997 1-716, looked up)
Segment polarity protein …: MGETKIIYHLDGQETPYLVKLPLPAERVTLADFKGVLQRPSYKFFFKSMDDDFGVVKEEISDDNAKLPCFNGRVVSWLVSAEGSHPDPAPFCADNPSELPPPMERTGGIGDSRPPSFHPHAGGGSQENLDNDTETDSLVSAQRERPRRRDGPEHATRLNGTAKGERRREPGGYDSSSTLMSSELETTSFFDSDEDDSTSRFSSSTEQSSASRLMRRHKRRRRKQKVSRIERSSSFSSITDSTMSLNIITVTLNMEKYNFLGISIVGQSNERGDGGIYIGSIMKGGAVAADGRIEPGDMLLQVNEINFENMSNDDAVRVLREIVHKPGPITLTVAKCWDPSPRGCFTLPRSEPIRPIDPAAWVSHTAAMTGTFPAYGMSPSLSTITSTSSSITSSIPDTERLDDFHLSIHSDMAAIVKAMASPESGLEVRDRMWLKITIPNAFIGSDVVDWLYHNVEGFTDRREARKYASNLLKAGFIRHTVNKITFSEQCYYIFGDLCGNMANLSLHDHDGSSGASDQDTLAPLPHPGAAPWPMAFPYQYPPPPHPYNPHPGFPELGYSYGGGSASSQHSEGSRSSGSNRSGSDRRKEKDPKAGDSKSGGSGSESDHTTRSSLRGPRERAPSERSGPAASEHSHRSHHSLASSLRSHHTHPSYGPPGVPPLYGPPMLMMPPPPAAMGPPGAPPGRDLASVPPELTASRQSFRMAMGNPSEFFVDVM
open neural tube (number of embryos) (Xenopus laevis embryos; 1. Injection): 3
open neural tube (number of embryos) (Xenopus laevis embryos; 2. Injection): 1
shortened AP axis (number of embryos) (Xenopus laevis embryos; 2. Injection): 0
open neural tube (number of embryos) (Xenopus laevis embryos; 3. Injection): 0
shortened AP axis (number of embryos) (Xenopus laevis embryos; 3. Injection): 0
open NT (number of embryos) (Xenopus laevis embryos; Graph: sum of injections 1-3): 4

binding result [5]: binds
fold lower affinity than PDZ wt [6]: 2 fold
fold weaker affinity than PDZ wt [7]: 2 fold
Kd [8]: 625000 nM
Kd [9]: 296000 nM
B2: phosphorylated (pS700) C-terminal peptide derived from DVL3 (aa 698–716) (peptide, UniProt Q92997 698-716, looked up)
peptide: H-RQ[pS]FRMAMGNPSEFFVDVM-OH
notes: Dishevelled-3, human, C-terminal aa 698-716; the last seven residues are printed as EFFVDIM; also called DVL C-terminal peptide; C-terminal DVL peptide (pS700); source: synthetic peptide, bought: KareBay Biochem
